Article PMC9482650, “Quantitative fragmentomics allow affinity mapping of interactomes” (Nature Communications, 2022)

B1: DUSP5, Q16690 (peptide)
chain: RSPVATATSC
B2: NPSR1, Q6W5P4 (peptide)
chain: MQILSKPEFI
B3: FAM71C, Q8NEG0 (peptide)
chain: STYCDYTIEI
B4: GAS2L2, Q8NHY3 (peptide)
chain: PLPPEEESWV

These binders were tested against T1, SNTB1, Q13884 (assay: holdup assay). Conditions: plain residues with an end cap or a label only (N-terminal biotin on a linker: ado-ado).
T1 sequence (Q13884 107-205, limits assumed, looked up): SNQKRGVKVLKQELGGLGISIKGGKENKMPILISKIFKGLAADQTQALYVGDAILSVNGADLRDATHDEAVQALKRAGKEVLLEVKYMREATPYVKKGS
Design: key: below the threshold = too weak to quantify, mostly under pKd 3.1 to 4
B1 was tested, and the pKd was “below the threshold”.
B2 was tested, and the pKd was “below the threshold”.
With B3 the pKd was “below the threshold”.
Binder B4 has a pKd of 4.86.

Each binder was assayed against T2, SNTG2, Q9NY99 (assay: holdup assay). Conditions: plain residues with an end cap or a label only (N-terminal biotin on a linker: ado-ado).
T2 sequence (Q9NY99 68-166, limits assumed, looked up): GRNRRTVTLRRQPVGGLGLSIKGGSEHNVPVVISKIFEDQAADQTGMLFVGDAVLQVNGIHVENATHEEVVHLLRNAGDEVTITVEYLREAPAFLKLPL
Design: key: below the threshold = too weak to quantify, mostly under pKd 3.1 to 4
B1 was tested, and the pKd was “below the threshold”.
B2 was tested, and the pKd was “below the threshold”.
B3 was tested, and the pKd was “below the threshold”.
In the case of B4, the pKd is reported as 4.24.

What follows are binders tested against T3, TIAM2, Q8IVF5 (assay: holdup assay). Conditions: plain residues with an end cap or a label only (N-terminal biotin on a linker: ado-ado).
T3 sequence (Q8IVF5 885-986, limits assumed, looked up): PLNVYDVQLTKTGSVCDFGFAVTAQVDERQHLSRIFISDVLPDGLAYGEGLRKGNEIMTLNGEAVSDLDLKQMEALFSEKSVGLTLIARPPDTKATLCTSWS
Design: key: below the threshold = too weak to quantify, mostly under pKd 3.1 to 4
For B1, the pKd was 4.09.
With B2 the pKd was 4.05.
Binder B3 has a pKd of 4.15.
B4 showed a pKd of 4.17.

Each binder was assayed against T4, PDZD2_2, O15018 (assay: holdup assay). Conditions: plain residues with an end cap or a label only (N-terminal biotin on a linker: ado-ado).
T4 sequence (O15018 329-429, limits assumed, looked up): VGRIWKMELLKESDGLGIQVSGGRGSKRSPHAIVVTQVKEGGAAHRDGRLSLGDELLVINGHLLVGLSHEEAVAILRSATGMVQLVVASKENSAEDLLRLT
Design: key: below the threshold = too weak to quantify, mostly under pKd 3.1 to 4
With B1 the pKd was “below the threshold”.
B2 was tested, and the pKd was 3.62.
In the case of B3, the pKd is reported as 4.69.
For B4, the pKd was 6.13.

These binders were tested against FRMPD2_2, Q68DX3 (assay: holdup assay). Conditions: plain residues with an end cap or a label only (N-terminal biotin on a linker: ado-ado).
Sequence of FRMPD2_2, Q68DX3 (Q68DX3 944-1038): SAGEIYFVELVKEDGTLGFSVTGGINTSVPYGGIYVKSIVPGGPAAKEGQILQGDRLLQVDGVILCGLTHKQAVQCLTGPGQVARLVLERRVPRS
Design: key: below the threshold = too weak to quantify, mostly under pKd 3.1 to 4
In the case of B1, the pKd is reported as “below the threshold”.
B2 was tested, and the pKd was “below the threshold”.
With B3 the pKd was “below the threshold”.
In the case of B4, the pKd is reported as 6.16.

Each binder was assayed against T5, LIN7C, Q9NUP9 (assay: holdup assay). Conditions: plain residues with an end cap or a label only (N-terminal biotin on a linker: ado-ado).
T5 sequence (Q9NUP9 88-185, limits assumed, looked up): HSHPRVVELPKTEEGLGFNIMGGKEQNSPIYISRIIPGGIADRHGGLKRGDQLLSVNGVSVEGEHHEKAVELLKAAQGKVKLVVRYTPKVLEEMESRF
Design: key: below the threshold = too weak to quantify, mostly under pKd 3.1 to 4
With B1 the pKd was “below the threshold”.
With B2 the pKd was “below the threshold”.
B3 was tested, and the pKd was “below the threshold”.
With B4 the pKd was 3.77.

These binders were tested against T6, APBA3_1, O96018 (assay: holdup assay). Conditions: plain residues with an end cap or a label only (N-terminal biotin on a linker: ado-ado).
T6 sequence (O96018 389-490, limits assumed, looked up): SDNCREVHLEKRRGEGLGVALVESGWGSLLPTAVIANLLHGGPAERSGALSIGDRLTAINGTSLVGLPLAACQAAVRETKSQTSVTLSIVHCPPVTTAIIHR
Design: key: below the threshold = too weak to quantify, mostly under pKd 3.1 to 4
B1 was tested, and the pKd was “below the threshold”.
For B2, the pKd was “below the threshold”.
In the case of B3, the pKd is reported as “below the threshold”.
For B4, the pKd was “below the threshold”.

Each binder was assayed against SNX27, Q96L92 (assay: holdup assay). Conditions: plain residues with an end cap or a label only (N-terminal biotin on a linker: ado-ado).
Design: key: below the threshold = too weak to quantify, mostly under pKd 3.1 to 4
With B1 the pKd was “below the threshold”.
B2 was tested, and the pKd was “below the threshold”.
B3 was tested, and the pKd was 3.56.
B4 showed a pKd of 5.58.

These binders were tested against LNX1_2, Q8TBB1 (assay: holdup assay). Conditions: plain residues with an end cap or a label only (N-terminal biotin on a linker: ado-ado).
Sequence of LNX1_2, Q8TBB1 (Q8TBB1 371-470): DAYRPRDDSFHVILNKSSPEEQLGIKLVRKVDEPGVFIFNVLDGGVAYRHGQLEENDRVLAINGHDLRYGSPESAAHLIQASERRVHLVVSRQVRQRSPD
Design: key: below the threshold = too weak to quantify, mostly under pKd 3.1 to 4
In the case of B1, the pKd is reported as “below the threshold”.
With B2 the pKd was “below the threshold”.
Binder B3 has a pKd of 4.35.
B4 showed a pKd of 3.94.

These binders were tested against T7, GRIP1_4, Q9Y3R0 (assay: holdup assay). Conditions: plain residues with an end cap or a label only (N-terminal biotin on a linker: ado-ado).
T7 sequence (Q9Y3R0 467-571, limits assumed, looked up): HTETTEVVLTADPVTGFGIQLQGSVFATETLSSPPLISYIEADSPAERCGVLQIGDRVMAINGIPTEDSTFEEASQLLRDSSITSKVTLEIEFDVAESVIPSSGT
Design: key: below the threshold = too weak to quantify, mostly under pKd 3.1 to 4
With B1 the pKd was “below the threshold”.
B2 was tested, and the pKd was “below the threshold”.
B3 was tested, and the pKd was “below the threshold”.
For B4, the pKd was “below the threshold”.

These binders were tested against LNX1_3, Q8TBB1 (assay: holdup assay). Conditions: plain residues with an end cap or a label only (N-terminal biotin on a linker: ado-ado).
Sequence of LNX1_3, Q8TBB1 (Q8TBB1 500-596): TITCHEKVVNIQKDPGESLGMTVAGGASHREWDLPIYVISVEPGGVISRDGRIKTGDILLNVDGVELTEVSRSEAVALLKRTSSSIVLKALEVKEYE
Design: key: below the threshold = too weak to quantify, mostly under pKd 3.1 to 4
With B1 the pKd was “below the threshold”.
For B2, the pKd was “below the threshold”.
For B3, the pKd was “below the threshold”.
For B4, the pKd was “below the threshold”.

The binders below were run against IL16_4, Q14005 (assay: holdup assay). Conditions: plain residues with an end cap or a label only (N-terminal biotin on a linker: ado-ado).
Sequence of IL16_4, Q14005 (Q14005 1229-1329): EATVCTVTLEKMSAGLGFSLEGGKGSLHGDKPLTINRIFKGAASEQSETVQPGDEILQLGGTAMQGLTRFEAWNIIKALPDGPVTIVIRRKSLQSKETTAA
Design: key: below the threshold = too weak to quantify, mostly under pKd 3.1 to 4
With B1 the pKd was “below the threshold”.
With B2 the pKd was 3.7.
With B3 the pKd was “below the threshold”.
B4 was tested, and the pKd was “below the threshold”.

The binders below were run against T8, ARHGEF11, O15085 (assay: holdup assay). Conditions: plain residues with an end cap or a label only (N-terminal biotin on a linker: ado-ado).
T8 sequence (O15085 42-136, limits assumed, looked up): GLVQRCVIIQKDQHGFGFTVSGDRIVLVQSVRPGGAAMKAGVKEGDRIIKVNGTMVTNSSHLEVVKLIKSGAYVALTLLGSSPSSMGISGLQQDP
Design: key: below the threshold = too weak to quantify, mostly under pKd 3.1 to 4
For B1, the pKd was “below the threshold”.
In the case of B2, the pKd is reported as “below the threshold”.
B3 was tested, and the pKd was 4.
B4 showed a pKd of 4.46.

Each binder was assayed against T9, HTRA4, P83105 (assay: holdup assay). Conditions: plain residues with an end cap or a label only (N-terminal biotin on a linker: ado-ado).
T9 sequence (P83105 378-476, limits assumed, looked up): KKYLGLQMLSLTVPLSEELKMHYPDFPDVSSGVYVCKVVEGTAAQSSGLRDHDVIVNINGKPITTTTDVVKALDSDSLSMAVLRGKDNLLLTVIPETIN
Design: key: below the threshold = too weak to quantify, mostly under pKd 3.1 to 4
For B1, the pKd was “below the threshold”.
Binder B2 has a pKd of 4.38.
B3 was tested, and the pKd was 4.96.
In the case of B4, the pKd is reported as 3.59.

Each binder was assayed against Inadl_3, Q8NI35 (assay: holdup assay). Conditions: plain residues with an end cap or a label only (N-terminal biotin on a linker: ado-ado).
Sequence of Inadl_3, Q8NI35 (Q8NI35 359-469): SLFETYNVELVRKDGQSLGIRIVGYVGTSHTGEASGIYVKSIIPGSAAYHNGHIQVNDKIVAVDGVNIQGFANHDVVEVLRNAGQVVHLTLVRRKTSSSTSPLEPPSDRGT
Design: key: below the threshold = too weak to quantify, mostly under pKd 3.1 to 4
With B1 the pKd was “below the threshold”.
With B2 the pKd was “below the threshold”.
B3 gave a pKd of 5.
In the case of B4, the pKd is reported as 3.78.

Each binder was assayed against SCRIB_2, Q14160 (assay: holdup assay). Conditions: plain residues with an end cap or a label only (N-terminal biotin on a linker: ado-ado).
Sequence of SCRIB_2, Q14160 (Q14160 857-960): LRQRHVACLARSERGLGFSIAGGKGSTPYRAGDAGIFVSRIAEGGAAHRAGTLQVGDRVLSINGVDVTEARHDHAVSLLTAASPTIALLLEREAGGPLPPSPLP
Design: key: below the threshold = too weak to quantify, mostly under pKd 3.1 to 4
For B1, the pKd was “below the threshold”.
For B2, the pKd was “below the threshold”.
For B3, the pKd was “below the threshold”.
With B4 the pKd was 4.94.

What follows are binders tested against MAGI2_4, Q86UL8 (assay: holdup assay). Conditions: plain residues with an end cap or a label only (N-terminal biotin on a linker: ado-ado).
Sequence of MAGI2_4, Q86UL8 (Q86UL8 772-865): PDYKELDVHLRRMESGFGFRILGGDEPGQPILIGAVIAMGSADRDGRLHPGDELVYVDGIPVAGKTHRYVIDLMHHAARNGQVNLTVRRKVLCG
Design: key: below the threshold = too weak to quantify, mostly under pKd 3.1 to 4
B1 was tested, and the pKd was “below the threshold”.
B2 was tested, and the pKd was “below the threshold”.
In the case of B3, the pKd is reported as “below the threshold”.
For B4, the pKd was 4.07.

These binders were tested against Inadl_6, Q8NI35 (assay: holdup assay). Conditions: plain residues with an end cap or a label only (N-terminal biotin on a linker: ado-ado).
Sequence of Inadl_6, Q8NI35 (Q8NI35 1058-1167): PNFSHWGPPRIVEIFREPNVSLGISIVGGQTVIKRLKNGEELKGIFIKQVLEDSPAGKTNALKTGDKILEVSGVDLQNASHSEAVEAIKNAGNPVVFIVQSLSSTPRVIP
Design: key: below the threshold = too weak to quantify, mostly under pKd 3.1 to 4
In the case of B1, the pKd is reported as “below the threshold”.
In the case of B2, the pKd is reported as “below the threshold”.
B3 was tested, and the pKd was “below the threshold”.
Binder B4 has a pKd of 5.43.

What follows are binders tested against TJP1_3, Q07157 (assay: holdup assay). Conditions: plain residues with an end cap or a label only (N-terminal biotin on a linker: ado-ado).
Sequence of TJP1_3, Q07157 (Q07157 416-512): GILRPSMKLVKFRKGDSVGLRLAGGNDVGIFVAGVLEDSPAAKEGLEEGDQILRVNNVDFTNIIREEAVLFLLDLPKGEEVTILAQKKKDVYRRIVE
Design: key: below the threshold = too weak to quantify, mostly under pKd 3.1 to 4
For B1, the pKd was “below the threshold”.
With B2 the pKd was “below the threshold”.
For B3, the pKd was “below the threshold”.
B4 was tested, and the pKd was 3.63.

The binders below were run against AHNAK1, Q09666 (assay: holdup assay). Conditions: plain residues with an end cap or a label only (N-terminal biotin on a linker: ado-ado).
Sequence of AHNAK1, Q09666 (Q09666 4-100): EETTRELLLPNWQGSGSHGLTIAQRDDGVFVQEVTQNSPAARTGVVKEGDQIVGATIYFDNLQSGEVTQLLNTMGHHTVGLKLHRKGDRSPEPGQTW
Design: key: below the threshold = too weak to quantify, mostly under pKd 3.1 to 4
For B1, the pKd was “below the threshold”.
For B2, the pKd was “below the threshold”.
With B3 the pKd was “below the threshold”.
B4 was tested, and the pKd was “below the threshold”.

The binders below were run against T10, LNX2_3, Q8N448 (assay: holdup assay). Conditions: plain residues with an end cap or a label only (N-terminal biotin on a linker: ado-ado).
T10 sequence (Q8N448 463-564, limits assumed, looked up): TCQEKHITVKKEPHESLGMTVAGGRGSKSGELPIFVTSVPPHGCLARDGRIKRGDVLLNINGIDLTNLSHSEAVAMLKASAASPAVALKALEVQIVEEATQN
Design: key: below the threshold = too weak to quantify, mostly under pKd 3.1 to 4
In the case of B1, the pKd is reported as “below the threshold”.
For B2, the pKd was “below the threshold”.
With B3 the pKd was “below the threshold”.
With B4 the pKd was “below the threshold”.

What follows are binders tested against LAP2, Q96RT1 (assay: holdup assay). Conditions: plain residues with an end cap or a label only (N-terminal biotin on a linker: ado-ado).
Sequence of LAP2, Q96RT1 (Q96RT1 other isoform, or with tags, fused parts or gaps): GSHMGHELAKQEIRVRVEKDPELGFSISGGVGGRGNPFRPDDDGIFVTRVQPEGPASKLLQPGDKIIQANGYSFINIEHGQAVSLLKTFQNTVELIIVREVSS
Design: key: below the threshold = too weak to quantify, mostly under pKd 3.1 to 4
For B1, the pKd was “below the threshold”.
B2 was tested, and the pKd was “below the threshold”.
With B3 the pKd was “below the threshold”.
B4 gave a pKd of 5.73.

The binders below were run against T11, PDZRN3_1, Q9UPQ7 (assay: holdup assay). Conditions: plain residues with an end cap or a label only (N-terminal biotin on a linker: ado-ado).
T11 sequence (Q9UPQ7 244-349, limits assumed, looked up): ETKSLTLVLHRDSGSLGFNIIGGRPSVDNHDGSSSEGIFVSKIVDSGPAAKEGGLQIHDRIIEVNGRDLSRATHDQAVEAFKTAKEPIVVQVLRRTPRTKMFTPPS
Design: key: below the threshold = too weak to quantify, mostly under pKd 3.1 to 4
For B1, the pKd was “below the threshold”.
In the case of B2, the pKd is reported as “below the threshold”.
With B3 the pKd was “below the threshold”.
In the case of B4, the pKd is reported as 3.52.

Each binder was assayed against T12, NHERF3_4, Q5T2W1 (assay: holdup assay). Conditions: plain residues with an end cap or a label only (N-terminal biotin on a linker: ado-ado).
T12 sequence (Q5T2W1 373-468, limits assumed, looked up): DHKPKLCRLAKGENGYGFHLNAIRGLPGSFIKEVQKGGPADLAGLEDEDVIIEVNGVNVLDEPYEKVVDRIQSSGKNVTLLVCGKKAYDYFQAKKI
Design: key: below the threshold = too weak to quantify, mostly under pKd 3.1 to 4
B1 was tested, and the pKd was “below the threshold”.
B2 gave a pKd of 3.51.
For B3, the pKd was “below the threshold”.
In the case of B4, the pKd is reported as “below the threshold”.

The binders below were run against DLG1_3, Q12959 (assay: holdup assay). Conditions: plain residues with an end cap or a label only (N-terminal biotin on a linker: ado-ado).
Sequence of DLG1_3, Q12959 (Q12959 457-571): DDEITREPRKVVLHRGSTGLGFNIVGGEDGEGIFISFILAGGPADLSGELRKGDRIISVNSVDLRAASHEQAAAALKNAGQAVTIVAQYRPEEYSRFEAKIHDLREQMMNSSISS
Design: key: below the threshold = too weak to quantify, mostly under pKd 3.1 to 4
B1 was tested, and the pKd was “below the threshold”.
In the case of B2, the pKd is reported as “below the threshold”.
In the case of B3, the pKd is reported as “below the threshold”.
In the case of B4, the pKd is reported as “below the threshold”.

What follows are binders tested against DLG2_2, Q15700 (assay: holdup assay). Conditions: plain residues with an end cap or a label only (N-terminal biotin on a linker: ado-ado).
Sequence of DLG2_2, Q15700 (Q15700 189-283): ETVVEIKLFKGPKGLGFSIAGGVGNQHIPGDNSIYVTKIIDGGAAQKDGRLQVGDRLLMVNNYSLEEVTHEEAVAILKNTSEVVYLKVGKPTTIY
Design: key: below the threshold = too weak to quantify, mostly under pKd 3.1 to 4
B1 was tested, and the pKd was “below the threshold”.
With B2 the pKd was “below the threshold”.
With B3 the pKd was “below the threshold”.
B4 showed a pKd of 4.19.
